Experiment [1] deals with 生物素化PD-1 (PD-1:PD-L1抑制剂筛选试剂盒, AcroBiosystems，EP-101) (UniProt Q15116). As to the kind of experiment: competition ELISA, PD-L1 coated, biotinylated PD-1; positive control antibody.
The target of experiment [2] is T细胞表面PD-1 (human) (UniProt Q15116). As to the kind of experiment: flow cytometry, MNC cultured alone 3 days, no BXOS antibody. On the technique in general: Flow cytometry measures light scatter and fluorescence of single cells or particles in a stream.
For experiment [3] the target is unchanged. As to the kind of experiment: flow cytometry, MNC co-cultured with DC, no BXOS antibody.
Experiment [4] deals with T1, 人PD-1重组蛋白(Acro Biosystems，PD-1-H5221) (human, UniProt Q15116 25-167).
T1 construct: Bought
T1 sequence (Q15116 25-167 limits assumed): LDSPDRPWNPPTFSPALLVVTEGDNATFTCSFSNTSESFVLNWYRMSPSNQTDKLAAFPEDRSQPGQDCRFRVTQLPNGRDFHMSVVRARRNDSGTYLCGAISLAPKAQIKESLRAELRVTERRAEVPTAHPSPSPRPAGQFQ
Kind of experiment: phage ELISA on coated human PD-1 recombinant protein. A general note: An ELISA detects its analyte on a solid surface through an enzyme-linked reagent.

We go through 7 molecules from CN109467603A (BIOCELLS BEIJING BIOTECHNOLOGY CO LTD, dated 2019).

Turning to “阳性对照αPD-1单克隆抗体:Anti-PD1mAb，Human(IgG4)Lot No.B52-63NS1-AS,ACRO Biosystems (antibody)”, in experiment [1], the 阻断率 is 70.7 %.

As to 商品化的抗PD-1的流式抗体PD-1-PE(biolegend，329906), the PD-1表达量 (% of T cells stained by PD-1-PE) with T细胞表面PD-1 (human) [2] was 26.2 %; with T细胞表面PD-1 (human) [3] it was 32.6 %.

B1: scFv4 (scFv)
scFv: QVQLVQSGGGLVKPGGSLRLSCVASGFTFSNSGMHWVRQAPGKGLEWVAVIWYDGSKRYYADSVKGRFTISRDNSKNTLFLQMNSLRAEDTAVYYCATNDDYWGQGTLVTVSSGGGGSGGGGSGGGGSEIVMTQSPATLSLSPGERATLSCRASQSVSSNLAWYQQKPGQAPRLLIYDASTRATGIPARFSGSGSGTDFTLTISSLQPEDFATYYCLQDYNYPRTFGQGTKLEIKR
On to B1, for which the binding result in experiment [4] is on record as “binds”.

B2: scFv5 (scFv)
scFv: QVQLVESGGGVVQPGRSLRLDCKASGITFSNSGMHWVRQAPGKGLEWVAVIWYDGSKRYYADSVKGRFTISRDNSKNTLFLQMNSLRAEDTAVYYCATNDDYWGQGTLVTVSSGGGGSGGGGSGGGGSEIVMTQSPATLSLSPGERATLSCRASQSVSSSVSWYQQKLGQAPRLLIYDASNRATGIPARFSGSGSGTDFTLTISSLEPEDFAVYYCQQRSKWPLTFGAGTKVEIKR
B2: the binding result in experiment [4] is recorded as “binds”.

B3: scFv3 (scFv)
scFv: QVQLVQSGAEVKKPGSSVKVSCKASGGTFSSYAISWVRQAPGQGLEWMGRIIPILGIANYAQKFQGRVTITADKSTSTAYKELSSLRSEDTAVYYCAAPLPKNGVYPWGQGTLVTVSSGGGGSGGGGSGGGGSGGGGSEIVMTQSPATLSSSPGERVTLSCRASQSVTSHLAWYQQRPGQAPRLLIYDASKRATGIPARFSGSGSGTDFTLTISSLEPEDFATYYCLQDYRYPRTFGQGTKVEIKR
Turning to B3, the binding result in experiment [4] was “binds”.

B4: scFv2 (scFv)
scFv: QVQLVESGGGVVQPGKSLRLSCAASGFSFRNYDMHWVRQAPGRGLEWVAVTWYDGSNKYYADSVKGRFTISRDNSKNTVYLHINSLRAEDTAVYYCAKDQAHYYNYSTGHFSYYFDSWGQGTLVTVSGGGGSGGGGSGGGGSEIVLTQSPATLSLSPGQRATLSCRTSQTIRKHLAWYQQKPGQAPRLLVYDISSRATGIPARFSGSGSGTDFTLTISSLQPDDFATYYCQRYDTYPRTFGQGTKVEIKR
B4: the binding result in experiment [4] is “binds”.

B5: scFv1 (scFv)
scFv: QVQLVQSGGDLVKPGGSLRLSCATSGFTFSTYNMHWVRQAPGKGLEWVSSISRSSDYIYYADSVKGRFTMSRDNAKTSLYLQMNSLRADDTAVYYCARDSWIYDGSGYSSDAFDIWGQGTMVTVSGGGGSGGGGSGGGGSEIVLTQSPATLSLSPGERATLSCRASQSISSYLSWYQQKPGQAPRLLIYDASNRATGIPARFSGGGSGTDFTLTISSLEPEDFAVYYCQQRNSWPLTFGGGTKVEIKR
For the molecule B5, in experiment [4], the binding result is “binds”.
